This note sets out measurements from PMC6208443 (2018).

What all share (assay): ITC
In general terms: In ITC the heat of successive injections is recorded.

One experiment has as its target RsAGDP1 AGD56.
In the next experiment the target is RsAGDP1 AGD34.
Experiment [1] deals with T1, RsAGDP1 AGD12 (residues 26–180) (Raphanus sativus).
T1 chain: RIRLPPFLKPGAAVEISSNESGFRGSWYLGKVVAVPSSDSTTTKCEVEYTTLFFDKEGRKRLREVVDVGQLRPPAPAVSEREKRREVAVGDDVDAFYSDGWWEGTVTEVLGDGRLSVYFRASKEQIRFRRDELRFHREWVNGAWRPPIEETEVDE

Square brackets hold non-standard residues; d marks the D form. Ends that are not written are not given here. Lys(Me3) = C[N+](C)(C)CCCC[C@H](N)C(=O)O; Lys(Me2) = CN(C)CCCC[C@H](N)C(=O)O; Lys(Me) = CNCCCC[C@H](N)C(=O)O

B1: H3K9me1 peptide (ITC) (peptide)
chain: ARTKQTARKSTGGKA
modifications: monomethyl-lysine at K9
Take B1: the Kd in the experiment with RsAGDP1 AGD56 amounted to 50 µM; in the experiment with RsAGDP1 AGD34, 10.1 µM; in experiment [1], 84.7 µM.

B2: H3K4me2K9me2 peptide (peptide)
chain: ART[Lys(Me2)]QTAR[Lys(Me2)]STGGKA
The molecule B2 displayed an equilibrium dissociation constant (Kd) in experiment [1] of 25.5 µM.

B3: H3K4me3K9me2 peptide (peptide)
chain: ART[Lys(Me3)]QTAR[Lys(Me2)]STGGKA
In the case of B3, the Kd in experiment [1] amounted to 103 µM.

B4: H3K9me2 peptide (ITC) (peptide)
chain: ARTKQTARKSTGGKA
modifications: dimethyl-lysine at K9
As for B4, the affinity with RsAGDP1 AGD56, expressed as Kd, was 26.2 µM.

B5: H3K4me1K9me2 peptide (peptide)
chain: ART[Lys(Me)]QTAR[Lys(Me2)]STGGKA
With B5, the Kd in experiment [1] turned out to be 23.4 µM.

B6: H3K9me3 peptide (ITC) (peptide)
chain: ARTKQTARKSTGGKA
modifications: trimethyl-lysine at K9
With B6, the Kd with RsAGDP1 AGD56 stood at 52.9 µM; in the experiment with RsAGDP1 AGD34 it was 10.7 µM; in experiment [1] it was 101 µM.

The Kd is a measure of binding affinity in units of concentration.
